± gives the uncertainty stated by the source.
Assay: protein stability index of a GFP-peptide fusion (yeast GPS) (PSI 1-4); higher = more stable; sorted into four equal gates, so the index is relative within each strain
Procedure, shortened: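 Tiled 17-residue yeast protein peptides were fused downstream of GFP in a plasmid that also expresses Cherry, and the pooled library was carried in yeast. Mid-log cultures in leucine-free medium were sorted into four equal gates by GFP/Cherry fluorescence ratio, and plasmids from each gate were PCR-amplified and Illumina-sequenced, with reads assigned to strains by barcodes. The protein stability index for each peptide was each gate's read frequency times its gate number, summed.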

In the case of ILVDSLTGNQLPTPTPT [SWI1], the protein stability index (doa10∆) is reported as 2.73 ± 0.066, the protein stability index (pdr5∆) is reported as 2.76 ± 0.073 and the protein stability index (san1∆) is reported as 2.93 ± 0.048. It also gave a protein stability index (ubr1∆) of 2.73 ± 0.045.
Work on NNIIAEGIEKMGVRTFS [FAS2] yielded a protein stability index (doa10∆) of 2.7 ± 0.22, a protein stability index (san1∆) of 2.23 ± 0.12 and a protein stability index (ubr1∆) of 2.69 ± 0.12.
EIFHLLQPLEEGLIIDT [SIN4] gave a protein stability index (doa10∆) of 1.99 ± 0.2, a protein stability index (pdr5∆) of 2.13 ± 0.11 and a protein stability index (san1∆) of 2.21 ± 0.22. For the same sequence, the protein stability index (ubr1∆) was 1.97 ± 0.093.
Work on KQFVVDVLHPNRANVSK [RPS24A] yielded a protein stability index (doa10∆) of 2.94 ± 0.073, a protein stability index (pdr5∆) of 3.24 ± 0.082 and a protein stability index (san1∆) of 2.96 ± 0.079. It also gave a protein stability index (ubr1∆) of 3.07 ± 0.05.
In the case of AKLSDTLIIDQVRKDLG [NUT1], the protein stability index (doa10∆) is reported as 2.83 ± 0.11, the protein stability index (pdr5∆) is reported as 2.32 ± 0.16 and the protein stability index (san1∆) is reported as 2.7 ± 0.13. It also gave a protein stability index (ubr1∆) of 2.85 ± 0.09.
Work on EHFLKLNIDFGSDKQMF [YML103C/NUP188] yielded a protein stability index (doa10∆) of 2.61 ± 0.075, a protein stability index (pdr5∆) of 2.59 ± 0.07 and a protein stability index (san1∆) of 2.26 ± 0.1. The protein stability index (ubr1∆) was 3.16 ± 0.061.
For VIDLEKIKFDESSKLMT [BRR2], the protein stability index (doa10∆) was 1.27 ± 0.1, the protein stability index (pdr5∆) was 1.43 ± 0.086 and the protein stability index (san1∆) was 1.18 ± 0.25. The protein stability index (ubr1∆) was 1.32 ± 0.053.
With LFGNNNTNNINNSSSGM [YGL172W/NUP49] the protein stability index (doa10∆) was 3.38 ± 0.16, the protein stability index (pdr5∆) was 3.42 ± 0.14 and the protein stability index (san1∆) was 3 ± 0.12. It also gave a protein stability index (ubr1∆) of 3.13 ± 0.13.
GISRDIKALQDSLFKDV [YML103C/NUP188] gave a protein stability index (doa10∆) of 2.19 ± 0.077, a protein stability index (pdr5∆) of 1.99 ± 0.063 and a protein stability index (san1∆) of 2.07 ± 0.089. It also gave a protein stability index (ubr1∆) of 1.77 ± 0.042.
Sequence FDQSTNVKVIMATNRAD [RPT3] has a protein stability index (doa10∆) of 2.12 ± 0.054, a protein stability index (pdr5∆) of 2.15 ± 0.053 and a protein stability index (san1∆) of 1.52 ± 0.074. For the same sequence, the protein stability index (ubr1∆) was 2.02 ± 0.051.
For ILTPESQLKKTKAQQKT [RPL7B], the protein stability index (doa10∆) was 2.86 ± 0.095, the protein stability index (pdr5∆) was 2.89 ± 0.11 and the protein stability index (san1∆) was 2.91 ± 0.076. For the same sequence, the protein stability index (ubr1∆) was 2.86 ± 0.048.
Sequence DSMKYTISSLFVQLCEM [RPC82] has a protein stability index (doa10∆) of 1.86 ± 0.044, a protein stability index (pdr5∆) of 2.26 ± 0.042 and a protein stability index (san1∆) of 2.15 ± 0.062. The protein stability index (ubr1∆) was 2.17 ± 0.043.
Work on KKACIIFFDEIDAVGGA [RPT1] yielded a protein stability index (doa10∆) of 2.39 ± 0.052, a protein stability index (pdr5∆) of 2.67 ± 0.054 and a protein stability index (san1∆) of 2.81 ± 0.055. The protein stability index (ubr1∆) was 2.73 ± 0.038.
QLAVRAPKGQNTLILRG [RPL18A] gave a protein stability index (doa10∆) of 2.86 ± 0.28.
Work on SSPTLATGFGAHMANPL [PRE4] yielded a protein stability index (doa10∆) of 3.26 ± 0.09, a protein stability index (pdr5∆) of 3.07 ± 0.097 and a protein stability index (san1∆) of 2.98 ± 0.068. It also gave a protein stability index (ubr1∆) of 2.65 ± 0.097.
Sequence KVSAREKSAYKFFHNGM [FAS2] has a protein stability index (doa10∆) of 3.5 ± 0.14, a protein stability index (pdr5∆) of 3.39 ± 0.14 and a protein stability index (san1∆) of 3.35 ± 0.099. For the same sequence, the protein stability index (ubr1∆) was 3.54 ± 0.13.
VNASVDVDQHGNDNNSD [SWI3] showed a protein stability index (doa10∆) of 3.13 ± 0.085, a protein stability index (pdr5∆) of 3.46 ± 0.081 and a protein stability index (san1∆) of 3.52 ± 0.059. For the same sequence, the protein stability index (ubr1∆) was 3.3 ± 0.038.
With LDALTRHIKSKHEDLSL [RPN4] the protein stability index (doa10∆) was 2.54 ± 0.062, the protein stability index (pdr5∆) was 2.08 ± 0.068 and the protein stability index (san1∆) was 1.57 ± 0.089. For the same sequence, the protein stability index (ubr1∆) was 2.61 ± 0.059.
HLCSGILSSVNRTVLLK [SRB8] showed a protein stability index (doa10∆) of 1.42 ± 0.073, a protein stability index (pdr5∆) of 1.67 ± 0.15 and a protein stability index (san1∆) of 1.41 ± 0.17. For the same sequence, the protein stability index (ubr1∆) was 1.67 ± 0.047.
Work on EESISKFPDMGSLWVEF [RPB5] yielded a protein stability index (doa10∆) of 2.53 ± 0.073, a protein stability index (pdr5∆) of 2.98 ± 0.1 and a protein stability index (san1∆) of 2.77 ± 0.1. It also gave a protein stability index (ubr1∆) of 2.71 ± 0.1.
For SILPTRDDLFVRNLQGI [NUT1], the protein stability index (doa10∆) was 1.69 ± 0.094, the protein stability index (pdr5∆) was 2.19 ± 0.11 and the protein stability index (san1∆) was 2.05 ± 0.15. For the same sequence, the protein stability index (ubr1∆) was 1.56 ± 0.058.
DVFNLLPNLGTPDDDEI [RPN8] gave a protein stability index (doa10∆) of 1.96 ± 0.071, a protein stability index (pdr5∆) of 2.02 ± 0.079 and a protein stability index (san1∆) of 1.43 ± 0.12. The protein stability index (ubr1∆) was 1.43 ± 0.056.
Work on QQRFQALQQQQQQQQNQ [SWI1] yielded a protein stability index (doa10∆) of 2.05 ± 0.05, a protein stability index (pdr5∆) of 2.07 ± 0.046 and a protein stability index (san1∆) of 2.25 ± 0.052. It also gave a protein stability index (ubr1∆) of 2.04 ± 0.059.
YSALNSTYLPKLISAFD [RRP42] gave a protein stability index (doa10∆) of 2.69 ± 0.068, a protein stability index (pdr5∆) of 2.41 ± 0.06 and a protein stability index (san1∆) of 2.57 ± 0.06. It also gave a protein stability index (ubr1∆) of 2.39 ± 0.055.
Work on PHLFVNGDLTVSLCAKN [SSN2] yielded a protein stability index (doa10∆) of 1.95 ± 0.079, a protein stability index (pdr5∆) of 2.12 ± 0.081 and a protein stability index (san1∆) of 2.25 ± 0.18. For the same sequence, the protein stability index (ubr1∆) was 1.87 ± 0.074.
Work on FLKKLRNEQVTIELKNG [SMD1] yielded a protein stability index (doa10∆) of 2.49 ± 0.051, a protein stability index (pdr5∆) of 2.24 ± 0.044 and a protein stability index (san1∆) of 2.42 ± 0.056. For the same sequence, the protein stability index (ubr1∆) was 2.67 ± 0.039.
FVIGEQGKPYISLPKGK [RPS4A] gave a protein stability index (doa10∆) of 3.34 ± 0.068, a protein stability index (pdr5∆) of 3.21 ± 0.065 and a protein stability index (san1∆) of 3.25 ± 0.051. It also gave a protein stability index (ubr1∆) of 2.41 ± 0.053.
